Reference: US7211241B2, “Cascade polymer complexes, process for their production and pharmaceutical agents containing said complexes” (Schering Aktiengesellschaft, priority 1995, dated 2007)

Experiments:
[1] = In vivo comparison with an extracellular contrast medium: blood concentrations of Gd and Dy in rats with ligated renal vessels; conditions: i.v.; for diffusion in the interstitium: compound 1 and compound 2 compared in the same animals; for time until equilibrium is reached (constant blood level): examination period 15 minutes
Excerpt: FIG. 1 is a graph of the measured blood concentrations of Gd (compound 1) and Dy (compound 2) in rats (n=5) with ligated renal vessels, as described in the above Example for an In Vivo Comparison with an Extracellular Contrast Medium.
The suitability of the compound described in Example 1k) as blood-pool-agent is shown in the following test.
As test animals, five male (Schering-SPF) rats that are 300–350 g in weight are used. Before the test, the abdomen is opened, the intestines are shifted and then the renal vessels (arterial+venous) of both sides are ligated through the rear peritoneum with a surgical needle. Then, the abdominal cavity is closed again. 0.3 ml (respectively 50 mmol/L) of the following contrast medium solution per animal is then administered intravenously: mixture of 1 part each of the compound of Example 1k), named compound 1 below, and the dysprosium complex of 10-(1-hydroxymethyl-2,3-dihydroxypropyl)-1,4,7-tris(carboxymethyl)-1,4,7,10-tetraazacyclododecane, produced analogously to the instructions in European Patent Application EP 448 191, named compound 2 below. Blood samples are taken with a catheter in the common carotid artery at the following times: 15, 30, 45, 60, 90 seconds, 3, 5, 10, 15 minutes p.i. In the blood samples obtained, the concentrations of gadolinium (Gd) and dysprosium (Dy) are measured with the aid of atomic emission spectrometry (ICP-AES) in each case in a parallel manner. The portion of the injected contrast medium of compound 1 (Gd) and compound 2 (Dy., comparison substance), remaining in the blood space, can be compared in the same animals by the different marking. Since a renal excretion is not possible, the decrease of the blood concentration can be attributed only to a distribution in the blood spaces and to the diffusion in the interstitial tissue.

[2] = MR angiography on rabbits; format: in vivo; conditions: i.v. 50 μmol of Gd/kg of body weight, 1.5 tesla
Method: The compound cited under Example 1k was studied on rabbits (CH. R. Kisslegg, ≈4 kg of body weight) in an MR angiography experiment (Ganzkörper [whole-Body] MRT System Siemens Vision, 1.5 tesla, FISP 3D; TR: 400 ms; TE 15 ms; flip angle: 45°; coronal).
In a precontrast picture only one to two major vessels are visible (e.g., abdominal aorta) in relatively poor contrast (signal intensity SI of these vessels against the background).

[3] = rats; cited from earlier work

Row | Compound | behaviour as blood-pool contrast medium [1] | diffusion in the interstitium [1] | blood concentrations ([1]; compound 1 versus compound 2, up to 15 minutes p.i.) | time until equilibrium is reached (constant blood level) [1] | blood vessels visible after administration of contrast medium [2] | contrast (SI of the vessels/SI of the background) ([2]; versus precontrast picture) | excretion route [3]
1 | 24-mer-Gd-complex of N-(5-DO3A-yl-4-oxo-3-azahexanoyl)-cascade polyamide based on N,N,N′,N′,N″,N″-hexakis[2-(trilysylamino)-ethyl]-trimesic acid triamide [Example 1k] | behaves as a blood-pool contrast medium | considerably slowed-down | constantly higher | no equilibrium is reached | a wide variety of minor blood vessels and capillaries | marked increase | 
2 | O=C([O-])CN1CCN(CC(=O)[O-])CCN(C(CO)C(O)CO)CCN(CC(=O)[O-])CC1.[Dy+3] (stereo not drawn) [compound 2, dysprosium complex of 10-(1-hydroxymethyl-2,3-dihydroxypropyl)-1,4,7-tris(carboxymethyl)-1,4,7,10-tetraazacyclododecane, reference compound] |  | diffuses quickly into the interstitial spaces of the body |  | 3–5 minutes p.i. |  |  | 
3 | polylysine-GdDTPA |  |  |  |  |  |  | excreted unchanged by glomerular filtration through the kidneys
